Patent US11066655B2, “RNA polymerase, methods of purification and methods of use” (President and Fellows of Harvard College, priority 2013, dated 2021)

How the values were obtained:
[1] = Chamberlin et al. (1973); cited from earlier work
[2] = test system: DNA templates with Syn5 promoter; experiment: Gel assay of transcription products with MgCl2, FeCl2 or MnCl2 as cofactor; format: biochemical
Experimental: FIG. 6 depicts a comparison of Syn5 RNAP transcription products in the presence of MgCl2, FeCl2 or MnCl2 on denaturing gels. Reactions contained 200 µM ATP, GTP, UTP and 10 µM[…]-^32P]CTP, 50 nM Syn5 RNAP, DNA templates (1 µM template as shown in FIG. 3A for 71 nt runoff transcript, 4 nM template 3 as shown in FIG. 3C for 225 nt product, or 1 µM template 1 as shown in FIG. 3B for 37 nt runoff transcript).
For the gel assay results shown in FIGS. 1, 2, 3, and 13, reaction mixtures (20 μl) contained 40 mM Tris-HCl (pH 7.9), 6 mM MgCl2, 2 mM spermidine, 10 mM DTT, 200 µM[…]P, GTP and UTP, 10 µM [[…]-^32P]CTP, 1.5 U/µl RNaseOUT™ recombinant ribonuclease inhibitor (Invitrogen), 100 nM Syn5 or T7 RNAP, and DNA templates as described in the figure legends (either 2 nM phage genomic DNA, 4 nM purified PCR products, or 1 µM synthetic dsDNA fragments). Reaction mixtures were incubated at 24° C. for 30 min. The reaction mixtures described in FIG. 6 contained 40 mM Tris-HCl (pH 8.0), 200 µM[…]P, GTP and UTP, 10 µM [[…]-^32P]CTP, 1.5 U/µl RNaseOUT™, 50 nM Syn5 RNAP, DNA templates, and various amounts of MgCl2, FeCl2, MnCl2 and KCl as described in the figure legends. After 30 min incubations at 24° C., one unit of RQ1 RNase-Free DNase (Promega) was added to each reaction mixture and incubated for an additional 20 min at 37° C. to remove the DNA templates. Reactions were then terminated by the addition of 8 µl of loading dye containing 95% formamide and 40 mM EDTA. Samples were then heated at 90° C. for 1 min and loaded onto either 10% or 25% TBE-Urea denaturing gels. After electrophoresis, gels were dried and analyzed using a Fuji BAS 1000 Bioimaging Analyzer.

plasmid pET24-S5 RNAP = experiment: Incorporation of AMP by RNA polymerases from the improved purification; format: biochemical
Experimental: FIGS. 8A-8B depict RNA polymerases described further herein. A) SDS-PAGE gel of Syn5 RNA polymerase purified as previously reported (S50, 18), newly purified Syn5 RNA polymerase using Ni-NTA chromatography in the presence of 2 M NaCl (S5N1), newly purified Syn5 RNA polymerase purified using Ni-NTA and gel filtration chromatography in the presence of 2 M NaCl (S5N2), and T7 RNA polymerase. B) Incorporation of AMP at RT by 50 nM RNA polymerases shown in A). A plasmid with both a Syn5 and T7 promoter was used as template for transcription.
Reactions for FIG. 8B contained 40 mM Tris-HCl pH 8.0, 2 mM spermidine, 10 mM DTT, 200 µM[…] GTP, C[…]P, UTP and ^3H-ATP (20 cpm/pmole), 1.5 U/µl RNaseOUT™, 50 nM Syn5 or T7 RNAP and 4 nM plasmid pET24-S5 RNAP. Reaction mixtures were incubated at room temperature (RT, ˜24° C.). After various times the reactions were stopped by the addition of 20 mM EDTA. 4 µl of the mixtures were then loaded onto Whatman DE81 filter paper disks and the disks were washed to remove the unincorporated ^3H-ATP. The amount of insoluble ^3H-AMP, corresponding to nucleotides incorporated into newly synthesized RNA, was measured using a scintillation counter. The data were analyzed using Prism software.

[3] = test system: dsDNA template S5PhmttRNAProUGG; experiment: Synthesis of human mt tRNAPro, short RNA, optimized conditions; format: biochemical
[4] = test system: dsDNA template (1, 2 or 3); experiment: Incorporation of 2′-F-dNTP into RNA by wild-type Syn5 RNA polymerase (Mg buffer); format: biochemical
Description: FIG. 24 depicts gels showing incorporation of 2′-F-dNTP into RNA using WT Syn5 RNA polymerase.
According to certain aspects of the invention, wild-type Syn5 RNA polymerase was used in methods described herein for high yield 2′-F RNA synthesis, with DNA templates that allow incorporation of fewer than three 2′-F-dNTP into the first 12 nt of a full-length transcript and in a non-consecutive manner. Transcription initiation (synthesis of 2-12 nt RNA) can be the most unstable stage for an RNA polymerase. Once transcripts are extended over 12 nt, transcription elongation is robust and stable. To determine whether the incorporation of 2′-F-dNTP during the transcription initiation stage is a rate-limiting step of Syn5 RNA polymerase, Syn5 RNA polymerase transcription in the presence of 2′-F-dNTPs on DNA templates that allow various amounts of 2′-F-dNTP incorporation into the first 12 nt of the RNA products was compared. The following conditions were used.
The reaction components were incubated at 37° C. for 4 hrs. Then 0.4 µl of the reaction mixture were loaded onto 10% TBE gel and stained with ethidium bromide. […] See FIG. 1. lane 1 vs 2; 8 vs 7; 15 vs 14. […] Template 1 has also 3Gs but two of them are consecutive. […] See FIG. 1. lane 10 vs 7; lane 17 vs 14). […] Although there are only 2 Cs in the 1-12 nt region of template 1, two consecutive incorporations during the initiation stage prevented the efficient synthesis of RNA products containing 2′-F-dCMP. With template 3 starting with C, 2′-F-dCTP was still efficiently incorporated.

| Molecule | temperature of maximum activity [1] [°C] | transcription with ferrous as cofactor ([2]; 2 mM FeCl2) | longer transcripts (e.g. 225 nt) in the presence of iron ([2]; FeCl2) | maximum yield of short runoff products ([2]; manganese 0.25 to 1 mM versus magnesium) | N+1 runoff product ([2]; manganese versus magnesium) | efficiency of iron as a cofactor ([2]; versus magnesium) | activity of enzyme purified by Ni-NTA and gel filtration (plasmid pET24-S5 RNAP; 50 nM RNAP, RT) | increase of specific activity by improved purification (2 M NaCl) (plasmid pET24-S5 RNAP; versus previous three-step purification) [fold] | estimated yield of RNA ([3]; 100 µl transcription reaction) [nmole/100 µl] | enzyme activity ([3]; at 42° C.) | reduction of yield ([3]; final NTP 4 mM instead of 8 mM) | full-length products containing 2′-F-dUMP ([4]; template 1 and 3) | incorporation of 2′-F-dUTP ([4]; template 2) | incorporation of 2′-F-dCTP ([4]; template 2 and 3) | full-length transcript with ATP replaced by 2′-F-dATP ([4]; templates 1, 2, 3) | discrimination against 2′-F-dCTP ([4]; transcription elongation) |
| --- | --- | --- | --- | --- | --- | --- | --- | --- | --- | --- | --- | --- | --- | --- | --- | --- |
| T7 RNAP: RNA polymerase encoded by bacteriophage T7, from New England Biolabs [reference compound] | 37 |  |  |  |  |  |  |  |  |  |  |  |  |  |  |  |
| Syn5 RNAP: single subunit DNA-dependent RNA polymerase from marine cyanophage Syn5, amino acid sequence SEQ ID NO:23 (protein, Amino acid sequence of a cyanophage Syn5 RNAP) MSFDLIARQLQRETEAAELARKRLQDARREANERSYASSNIESRKAIATFLDPIAQRIGERLFTLRRGTGAVDAAEVYKHLKNADHHHLALITMKTALDVLGKDPEPQIQQLTTAIGRNIQLELRLTYYAEENPELYKQASRFFHAGTGTRQKATVIKLKFNREGIEWDQWSRVTCHKVGQWLMLAMADVTGWIERATDRTSGGRKTKTRICYSREFLQHRDTILAAAEQLAFCQWPMLCPPIEWSNDHNGGYLSEQIRRVNPLIRKTGPLGTRKQGDIPLAMLNNLQGQAYKVNPEVLDIANHCYESNVTVGKFIRHAPLPVPPSPGEDCTEDQLTAYKRARREAEDFNAQISQKNWRTTEVMYVARKYADEASFWMPASFDYRGRVYFLNTALNPQGTDFDKALLYFAEEGPVNEWWLSFHVATTYGLDKETMVNRVQWARDNHELIDRIASDPVRHTEWHDADEPWCFLAACLEYKACVIDGTKQTSGLPIGIDATCSGLQHLAAMTRCGRTAALVNVTPTDKPADAYKTVAQASLKHLPKEQHEWITRKVTKRPVMCTPYGVTMSSARGYIRDQLVKDGHKEDLRSPGVLNGIVKAIFNEAIPEVIPGPVQVMAWLKRSAGQIIDRGDSTITWTTPSGFEVVQDLKKSKTYEVKTRIMGGARIKLQVGDGFTDEPDRDHHKSALAPNVVHSNDASLLHLTFAFWDKPFTVIHDCVLGRSCDMDQMGSDIRLHFAEMYKADVMQDWADQVGVELPVDLIKNTLDIDSVNQSLYFFS |  | produce a 71 nt runoff transcript identical to that produced in the presence of MgCl2 | did not produce longer transcripts | higher in the presence of manganese | significantly higher with manganese than that with magnesium | several times less than that of magnesium | close to that of T7 RNAP | 2 | 4 | very low | approximately 20% | low yield | efficient incorporation | incorporated very well | none of them produces full-length transcript | no intrinsic discrimination against 2′-F-dCTP |
